# B1: PEP301, PB1 domain fragment peptide of human P62 (peptide)
# peptide: FSFCCSPEPEAEAEAAAGPGGRKKRRQRRRPQ
# notes: also called Sp62-301; PB1-domain peptide PEP301
# Molecular target: T1, C-terminal STING (immobilized and purified) (Homo sapiens, UniProt Q86WV6 139-379)
# T1 construct: only an unstated C-terminal part stood in the assay; also called immobilized C-terminal STING
# Assay: SPR (Biacore); C-terminal STING immobilized on the sensor chip
# Protocol: For the surface plasmon resonance (SPR) analyses, BlAcore sensor chips (type CMS; Biacore, Uppsala, SE) were activated with a 1:1 mixture of 0.2 M N-ethyl-N′-(3-dimethylaminopropyl) carbodiimide and 0.05 M N-hydroxysuccinimide in water according to the manufacturer. C-terminal STING was immobilized. The SPR signal from immobilized C-terminal STING generated BlAcore resonance units (RU) that were equivalent to 66 fmol/mm2. The flow cells were regenerated with 20 μl of 1.5 M glycine-HCI (pH 3.0). The flow buffer was 10 mM HEPES, 150 mM NaCl, 1.5 mM CaCl2, and 1 mM EGTA (pH 7.4). The binding data was analyzed using the BIAevaluation program. The number of ligands bound per immobilized receptor was estimated by dividing the ratio RU ligand/mass ligand with RU receptor/mass receptor. The Kd for binding was estimated using a BIA evaluation program.
# T1 sequence (Q86WV6 139-379 limits assumed): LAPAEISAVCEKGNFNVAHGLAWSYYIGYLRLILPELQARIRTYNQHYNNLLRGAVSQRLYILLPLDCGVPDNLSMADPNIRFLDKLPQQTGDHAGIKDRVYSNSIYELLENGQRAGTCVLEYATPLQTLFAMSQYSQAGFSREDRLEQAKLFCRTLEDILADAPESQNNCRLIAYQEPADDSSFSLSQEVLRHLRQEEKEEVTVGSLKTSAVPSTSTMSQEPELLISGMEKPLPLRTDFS
binder,measurement,value
B1,Kd,746 nM

# — patent US20210030870A1 (STIPE THERAPEUTICS, published 2021)
